Measurements published in patent US20260191907A1.

Tests used:
[1] = molecular target: Recombinant FGFR4 (G&P Biosciences) (human) (UniProt P22455); assay: SPR (BIAcore T200), single cycle kinetics, FGFR4 amine-immobilised (12'000 RU), negative control nanobody as analyte, heterogeneous ligand model, component 2 (koff2)
[2] = molecular target: FGFR4 expressed on the surface of RMS cells (Rh4-FR4 wt, Rh30) (human) (UniProt P22455); assay: flow cytometry, recombinant nanobody at 30 µg/ml on Rh4-FR4 wt cells, anti-6xHis-FITC detection; equals the background of the secondary antibody alone
FGFR4 expressed on the surface of RMS cells (Rh4-FR4 wt, Rh30) (human), sequence (P22455 22-802 limits assumed): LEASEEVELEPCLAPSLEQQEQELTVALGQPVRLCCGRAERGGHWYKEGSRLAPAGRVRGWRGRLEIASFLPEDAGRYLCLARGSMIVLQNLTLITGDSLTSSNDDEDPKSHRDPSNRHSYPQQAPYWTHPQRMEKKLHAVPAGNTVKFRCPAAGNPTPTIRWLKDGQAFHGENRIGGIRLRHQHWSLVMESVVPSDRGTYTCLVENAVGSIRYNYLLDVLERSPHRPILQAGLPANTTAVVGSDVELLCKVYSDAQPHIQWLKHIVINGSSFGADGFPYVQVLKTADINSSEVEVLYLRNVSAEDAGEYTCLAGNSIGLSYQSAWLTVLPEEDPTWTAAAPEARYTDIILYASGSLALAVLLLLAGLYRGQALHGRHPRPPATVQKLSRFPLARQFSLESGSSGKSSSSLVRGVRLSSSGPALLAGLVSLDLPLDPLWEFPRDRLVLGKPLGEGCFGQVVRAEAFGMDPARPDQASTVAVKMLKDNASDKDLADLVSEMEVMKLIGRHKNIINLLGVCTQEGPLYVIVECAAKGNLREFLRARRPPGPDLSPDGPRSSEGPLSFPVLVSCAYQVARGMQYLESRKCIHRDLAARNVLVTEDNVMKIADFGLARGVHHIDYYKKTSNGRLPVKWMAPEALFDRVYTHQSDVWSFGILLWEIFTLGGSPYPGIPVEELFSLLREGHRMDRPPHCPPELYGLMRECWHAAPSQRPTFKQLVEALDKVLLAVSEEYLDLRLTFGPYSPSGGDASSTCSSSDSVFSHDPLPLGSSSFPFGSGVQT

[3] = molecular target: Recombinant FGFR4 (G&P Biosciences) (human) (UniProt P22455); assay: SPR (BIAcore T200), single cycle kinetics, FGFR4 amine-immobilised (12'000 RU), negative control nanobody as analyte, heterogeneous ligand model, component 2 (KD2)
[4] = molecular target: Recombinant FGFR4 (G&P Biosciences) (human) (UniProt P22455); assay: SPR (BIAcore T200), single cycle kinetics, FGFR4 amine-immobilised (12'000 RU), negative control nanobody as analyte, heterogeneous ligand model, component 2 (kon2)
[5] = molecular target: Recombinant FGFR4 (G&P Biosciences) (human) (UniProt P22455); assay: SPR (BIAcore T200), single cycle kinetics, FGFR4 amine-immobilised (12'000 RU), negative control nanobody as analyte, heterogeneous ligand model, component 1 (KD1)
[6] = molecular target: Recombinant FGFR4 (G&P Biosciences) (human) (UniProt P22455); assay: SPR (BIAcore T200), single cycle kinetics, FGFR4 amine-immobilised (12'000 RU), negative control nanobody as analyte, heterogeneous ligand model, component 1 (kon1)
[7] = molecular target: Recombinant FGFR4 (G&P Biosciences) (human) (UniProt P22455); assay: SPR (BIAcore T200), single cycle kinetics, FGFR4 amine-immobilised (12'000 RU), negative control nanobody as analyte, heterogeneous ligand model, component 1 (koff1)

Recombinant FGFR4 (G&P Biosciences) (human), sequence (P22455 22-369 limits assumed): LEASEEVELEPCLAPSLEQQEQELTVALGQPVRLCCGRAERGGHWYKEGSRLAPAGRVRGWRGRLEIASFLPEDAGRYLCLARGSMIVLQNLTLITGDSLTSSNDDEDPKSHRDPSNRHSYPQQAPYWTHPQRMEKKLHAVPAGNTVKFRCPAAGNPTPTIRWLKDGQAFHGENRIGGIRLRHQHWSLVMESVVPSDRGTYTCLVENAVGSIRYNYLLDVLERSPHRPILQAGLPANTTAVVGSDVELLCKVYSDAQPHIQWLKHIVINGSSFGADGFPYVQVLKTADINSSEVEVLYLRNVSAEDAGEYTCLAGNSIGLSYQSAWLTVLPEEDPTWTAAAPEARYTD

## anti-mCherry nanobody (negative control) (VHH)
[1]
  koff: 0.00505 s⁻¹
[2]
  median fluorescence intensity (MFI): 200 MFI
[3]
  Kd: 2180 nM
[4]
  kon: 2320 M⁻¹ s⁻¹
[5]
  Kd: 1960 nM
[6]
  kon: 2600 M⁻¹ s⁻¹
[7]
  koff: 0.00511 s⁻¹
